In the supplement of paper PMC9112550, “Optimization of the antimicrobial peptide Bac7 by deep mutational scanning” (BMC Biology, 2022):
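Further: peptides expressed intracellularly from a pBAD plasmid library in pooled LB shake-flask culture, induced with 0.3% L-arabinose, DNA abundance read by NGS, three biological replicates, DESeq2 with apeglm shrinkage.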

The sequences below were run on Escherichia coli TOP10 (assay: shrunken log2 fold change of peptide-encoding DNA abundance (4.5 h post-induction vs induction); higher = less antimicrobial activity (less host growth inhibition)). Details: time post-induction: 4.5 h; library: site-saturation at positions 5, 18, 19, 20.
With RRIRHRPPRLPRPRPRPFFFPRP the “shrunken log2 fold change” value was 0.123. In the case of RRIRLRPPRLPRPRPRPMWDPRP, the “shrunken log2 fold change” value is reported as 0.0295. For RRIRMRPPRLPRPRPRPQPGPRP, the “shrunken log2 fold change” value was 0.778. For RRIRTRPPRLPRPRPRPASQPRP, the “shrunken log2 fold change” value was 0.0336. With RRIRLRPPRLPRPRPRPDCGPRP the “shrunken log2 fold change” value was 0.0932. RRIRNRPPRLPRPRPRPVIGPRP was tested, and the “shrunken log2 fold change” value was -0.00814. RRIRERPPRLPRPRPRPFFGPRP was tested, and the “shrunken log2 fold change” value was -0.217. With RRIRMRPPRLPRPRPRPPTNPRP the “shrunken log2 fold change” value was 0.949. For RRIRSRPPRLPRPRPRPPVRPRP, the “shrunken log2 fold change” value was 0.337. In the case of RRIRERPPRLPRPRPRPAFFPRP, the “shrunken log2 fold change” value is reported as 0.00883. With RRIRHRPPRLPRPRPRPSFSPRP the “shrunken log2 fold change” value was -0.483. For RRIRFRPPRLPRPRPRPCRFPRP, the “shrunken log2 fold change” value was -0.607. In the case of RRIRTRPPRLPRPRPRPLVWPRP, the “shrunken log2 fold change” value is reported as 0.44. For RRIRQRPPRLPRPRPRPMELPRP, the “shrunken log2 fold change” value was -0.109. In the case of RRIRGRPPRLPRPRPRPEEYPRP, the “shrunken log2 fold change” value is reported as 0.0595. In the case of RRIRMRPPRLPRPRPRPNFGPRP, the “shrunken log2 fold change” value is reported as 0.0832. In the case of RRIRMRPPRLPRPRPRPFCAPRP, the “shrunken log2 fold change” value is reported as 0.358. With RRIRARPPRLPRPRPRPSQKPRP the “shrunken log2 fold change” value was 0.106. For RRIRDRPPRLPRPRPRPEMYPRP, the “shrunken log2 fold change” value was 0.363. For RRIRQRPPRLPRPRPRPCKMPRP, the “shrunken log2 fold change” value was 0.0276. In the case of RRIRVRPPRLPRPRPRPHSRPRP, the “shrunken log2 fold change” value is reported as 0.0978. With RRIRDRPPRLPRPRPRPGCRPRP the “shrunken log2 fold change” value was 0.398. With RRIRQRPPRLPRPRPRPAKCPRP the “shrunken log2 fold change” value was 0.0161. With RRIRLRPPRLPRPRPRPNEDPRP the “shrunken log2 fold change” value was -0.132. In the case of RRIRPRPPRLPRPRPRPPAIPRP, the “shrunken log2 fold change” value is reported as 0.325. RRIRYRPPRLPRPRPRPSAKPRP was tested, and the “shrunken log2 fold change” value was -0.117. With RRIRARPPRLPRPRPRPVKAPRP the “shrunken log2 fold change” value was 0.0269. For RRIRGRPPRLPRPRPRPGLCPRP, the “shrunken log2 fold change” value was 0.957. RRIRCRPPRLPRPRPRPQTIPRP was tested, and the “shrunken log2 fold change” value was -0.516. With RRIRNRPPRLPRPRPRPELQPRP the “shrunken log2 fold change” value was -0.0211. With RRIRSRPPRLPRPRPRPGYRPRP the “shrunken log2 fold change” value was -0.0248. In the case of RRIRRRPPRLPRPRPRPNLHPRP, the “shrunken log2 fold change” value is reported as -0.288. For RRIRNRPPRLPRPRPRPAVDPRP, the “shrunken log2 fold change” value was 0.0455. In the case of RRIRSRPPRLPRPRPRPVNNPRP, the “shrunken log2 fold change” value is reported as -0.363. In the case of RRIRFRPPRLPRPRPRPYGGPRP, the “shrunken log2 fold change” value is reported as -0.00865. For RRIRLRPPRLPRPRPRPNIQPRP, the “shrunken log2 fold change” value was -0.689. In the case of RRIRARPPRLPRPRPRPEGTPRP, the “shrunken log2 fold change” value is reported as 0.251. With RRIRYRPPRLPRPRPRPWRSPRP the “shrunken log2 fold change” value was 0.175. RRIRERPPRLPRPRPRPKMSPRP was tested, and the “shrunken log2 fold change” value was 0.148. RRIRCRPPRLPRPRPRPRWMPRP was tested, and the “shrunken log2 fold change” value was 0.346. In the case of RRIRPRPPRLPRPRPRPEKFPRP, the “shrunken log2 fold change” value is reported as -0.181. RRIRMRPPRLPRPRPRPWPWPRP was tested, and the “shrunken log2 fold change” value was -0.00171. For RRIRYRPPRLPRPRPRPDPDPRP, the “shrunken log2 fold change” value was -0.162. In the case of RRIRMRPPRLPRPRPRPNRIPRP, the “shrunken log2 fold change” value is reported as -0.18. With RRIRTRPPRLPRPRPRPSAVPRP the “shrunken log2 fold change” value was -0.0697. RRIRMRPPRLPRPRPRPAWKPRP was tested, and the “shrunken log2 fold change” value was 0.14. For RRIRVRPPRLPRPRPRPYFTPRP, the “shrunken log2 fold change” value was -0.689. For RRIRGRPPRLPRPRPRPPYWPRP, the “shrunken log2 fold change” value was 0.355. With RRIRTRPPRLPRPRPRPGEHPRP the “shrunken log2 fold change” value was -0.187. In the case of RRIRWRPPRLPRPRPRPAQDPRP, the “shrunken log2 fold change” value is reported as 0.415. With RRIRHRPPRLPRPRPRPFTWPRP the “shrunken log2 fold change” value was -0.408. With RRIRNRPPRLPRPRPRPPIWPRP the “shrunken log2 fold change” value was -0.129. RRIRKRPPRLPRPRPRPPVCPRP was tested, and the “shrunken log2 fold change” value was 0.336. For RRIRQRPPRLPRPRPRPEISPRP, the “shrunken log2 fold change” value was 0.139. RRIRERPPRLPRPRPRPKAFPRP was tested, and the “shrunken log2 fold change” value was 0.0124. With RRIRQRPPRLPRPRPRPMINPRP the “shrunken log2 fold change” value was -0.0423. In the case of RRIRFRPPRLPRPRPRPMWSPRP, the “shrunken log2 fold change” value is reported as -0.227. In the case of RRIRWRPPRLPRPRPRPCMVPRP, the “shrunken log2 fold change” value is reported as -0.155. For RRIRLRPPRLPRPRPRPYKGPRP, the “shrunken log2 fold change” value was -0.027. RRIRNRPPRLPRPRPRPWMYPRP was tested, and the “shrunken log2 fold change” value was 0.0204. In the case of RRIRRRPPRLPRPRPRPHRPPRP, the “shrunken log2 fold change” value is reported as 0.203. RRIRYRPPRLPRPRPRPNQRPRP was tested, and the “shrunken log2 fold change” value was -0.181. RRIRQRPPRLPRPRPRPFHSPRP was tested, and the “shrunken log2 fold change” value was -0.00884. For RRIRLRPPRLPRPRPRPNDIPRP, the “shrunken log2 fold change” value was -0.723. For RRIRCRPPRLPRPRPRPLWYPRP, the “shrunken log2 fold change” value was -0.307. RRIRIRPPRLPRPRPRPVYKPRP was tested, and the “shrunken log2 fold change” value was -0.834. RRIRERPPRLPRPRPRPLLEPRP was tested, and the “shrunken log2 fold change” value was 0.105. For RRIRPRPPRLPRPRPRPRIIPRP, the “shrunken log2 fold change” value was -0.18. With RRIRGRPPRLPRPRPRPKASPRP the “shrunken log2 fold change” value was 0.234. In the case of RRIRLRPPRLPRPRPRPHLIPRP, the “shrunken log2 fold change” value is reported as -0.151. RRIRIRPPRLPRPRPRPPENPRP was tested, and the “shrunken log2 fold change” value was 0.0392. For RRIRPRPPRLPRPRPRPTIYPRP, the “shrunken log2 fold change” value was -0.413. RRIRMRPPRLPRPRPRPDMLPRP was tested, and the “shrunken log2 fold change” value was 0.0647. In the case of RRIRSRPPRLPRPRPRPTDWPRP, the “shrunken log2 fold change” value is reported as 0.354. RRIRTRPPRLPRPRPRPWWIPRP was tested, and the “shrunken log2 fold change” value was -0.869. In the case of RRIRPRPPRLPRPRPRPQKWPRP, the “shrunken log2 fold change” value is reported as 0.17. With RRIRTRPPRLPRPRPRPPMVPRP the “shrunken log2 fold change” value was 0.152. For RRIRSRPPRLPRPRPRPWCKPRP, the “shrunken log2 fold change” value was 0.149. In the case of RRIRVRPPRLPRPRPRPCCQPRP, the “shrunken log2 fold change” value is reported as -0.19. RRIRDRPPRLPRPRPRPDKKPRP was tested, and the “shrunken log2 fold change” value was 0.0252. With RRIRMRPPRLPRPRPRPICCPRP the “shrunken log2 fold change” value was -0.00414. With RRIRIRPPRLPRPRPRPKQGPRP the “shrunken log2 fold change” value was 0.391. With RRIRWRPPRLPRPRPRPPCQPRP the “shrunken log2 fold change” value was 0.0989. RRIRRRPPRLPRPRPRPLDLPRP was tested, and the “shrunken log2 fold change” value was -0.158. RRIRDRPPRLPRPRPRPLNMPRP was tested, and the “shrunken log2 fold change” value was 0.111. In the case of RRIRQRPPRLPRPRPRPMNVPRP, the “shrunken log2 fold change” value is reported as -0.0102. For RRIRGRPPRLPRPRPRPGDIPRP, the “shrunken log2 fold change” value was 0.143. With RRIRMRPPRLPRPRPRPITDPRP the “shrunken log2 fold change” value was -0.667. In the case of RRIRGRPPRLPRPRPRPCNKPRP, the “shrunken log2 fold change” value is reported as -0.442. RRIRDRPPRLPRPRPRPVIRPRP was tested, and the “shrunken log2 fold change” value was -0.19. RRIRGRPPRLPRPRPRPQKFPRP was tested, and the “shrunken log2 fold change” value was -0.0494. RRIRYRPPRLPRPRPRPYTMPRP was tested, and the “shrunken log2 fold change” value was -0.301. RRIRQRPPRLPRPRPRPSGNPRP was tested, and the “shrunken log2 fold change” value was -0.323. RRIRRRPPRLPRPRPRPDIFPRP was tested, and the “shrunken log2 fold change” value was 0.0756. In the case of RRIRNRPPRLPRPRPRPKGMPRP, the “shrunken log2 fold change” value is reported as -0.112. In the case of RRIRLRPPRLPRPRPRPVFSPRP, the “shrunken log2 fold change” value is reported as -0.112. For RRIRSRPPRLPRPRPRPGFMPRP, the “shrunken log2 fold change” value was -0.101. For RRIRRRPPRLPRPRPRPIVDPRP, the “shrunken log2 fold change” value was 0.841. RRIRTRPPRLPRPRPRPMANPRP was tested, and the “shrunken log2 fold change” value was -0.102. In the case of RRIRTRPPRLPRPRPRPEAMPRP, the “shrunken log2 fold change” value is reported as 0.0163. RRIRHRPPRLPRPRPRPVYLPRP was tested, and the “shrunken log2 fold change” value was -0.406. In the case of RRIRKRPPRLPRPRPRPMVTPRP, the “shrunken log2 fold change” value is reported as 0.231. RRIRYRPPRLPRPRPRPGRGPRP was tested, and the “shrunken log2 fold change” value was 0.254. In the case of RRIRGRPPRLPRPRPRPTWTPRP, the “shrunken log2 fold change” value is reported as 1.18. RRIRIRPPRLPRPRPRPPWPPRP was tested, and the “shrunken log2 fold change” value was 0.397. For RRIRMRPPRLPRPRPRPWSDPRP, the “shrunken log2 fold change” value was -0.131. With RRIRHRPPRLPRPRPRPWPSPRP the “shrunken log2 fold change” value was -0.00932. With RRIRVRPPRLPRPRPRPPMDPRP the “shrunken log2 fold change” value was -0.291. In the case of RRIRCRPPRLPRPRPRPWFDPRP, the “shrunken log2 fold change” value is reported as -0.496. In the case of RRIRDRPPRLPRPRPRPVWGPRP, the “shrunken log2 fold change” value is reported as 0.67. With RRIRKRPPRLPRPRPRPWVYPRP the “shrunken log2 fold change” value was 0.107. With RRIRERPPRLPRPRPRPSRPPRP the “shrunken log2 fold change” value was 0.168. In the case of RRIRLRPPRLPRPRPRPAFSPRP, the “shrunken log2 fold change” value is reported as 0.106. For RRIRGRPPRLPRPRPRPTNKPRP, the “shrunken log2 fold change” value was 0.242. For RRIRKRPPRLPRPRPRPLDIPRP, the “shrunken log2 fold change” value was -0.0215. RRIRERPPRLPRPRPRPSHRPRP was tested, and the “shrunken log2 fold change” value was -0.0834. For RRIRERPPRLPRPRPRPTLQPRP, the “shrunken log2 fold change” value was 0.125. In the case of RRIRIRPPRLPRPRPRPALRPRP, the “shrunken log2 fold change” value is reported as 0.00782. For RRIRIRPPRLPRPRPRPGLPPRP, the “shrunken log2 fold change” value was 0.209. RRIRLRPPRLPRPRPRPMTHPRP was tested, and the “shrunken log2 fold change” value was -0.22. In the case of RRIRQRPPRLPRPRPRPVFKPRP, the “shrunken log2 fold change” value is reported as -0.0447. RRIRPRPPRLPRPRPRPKQWPRP was tested, and the “shrunken log2 fold change” value was -0.22. RRIRNRPPRLPRPRPRPMTVPRP was tested, and the “shrunken log2 fold change” value was -0.12. RRIRRRPPRLPRPRPRPINIPRP was tested, and the “shrunken log2 fold change” value was -0.256. RRIRYRPPRLPRPRPRPSDAPRP was tested, and the “shrunken log2 fold change” value was -0.386.
